# Measured values published in PMC3290569, “Macro-to-Micro Structural Proteomics: Native Source Proteins for High-Throughput Crystallization” (PLoS ONE, 2012).
# B1: Ariginosuccinate lyase (enzyme, Escherichia coli, UniProt P11447 1-457, looked up)
# chain: MALWGGRFTQAADQRFKQFNDSLRFDYRLAEQDIVGSVAWSKALVTVGVLTAEEQAQLEEALNVLLEDVRARPQQILESDAEDIHSWVEGKLIDKVGQLGKKLHTGRSRNDQVATDLKLWCKDTVSELLTANRQLQSALVETAQNNQDAVMPGYTHLQRAQPVTFAHWCLAYVEMLARDESRLQDALKRLDVSPLGCGALAGTAYEIDREQLAGWLGFASATRNSLDSVSDRDHVLELLSAAAIGMVHLSRFAEDLIFFNTGEAGFVELSDRVTSGSSLMPQKKNPDALELIRGKCGRVQGALTGMMMTLKGLPLAYNKDMQEDKEGLFDALDTWLDCLHMAALVLDGIQVKRPRCQEAAQQGYANATELADYLVAKGVPFREAHHIVGEAVVEAIRQGKPLEDLPLSELQKFSQVIDEDVYPILSLQSCLDKRAAKGGVSPQQVAQAIAFAQARLG
# notes: argininosuccinate lyase (printed: Ariginosuccinate lyase), Escherichia coli, native source protein; identified with PDB 1TJ7; the PDB entry is the previously deposited structure that identified the protein; the crystallised protein is the native one; also called Arginosuccinate lyase; source: purified from E. coli DH5α cells (whole-proteome fractionation)
# B2: Glucose-6-phosphate isomerase (pGI) (enzyme)
# chain: not shown
# notes: glucose-6-phosphate isomerase, Escherichia coli, native source protein; also called phosphoglucose isomerase; source: purified from E. coli DH5α cells (CaptoQ, phenyl sepharose, MonoQ)
# B3: Catalase HPII (enzyme, Escherichia coli, UniProt P21179 1-753, looked up)
# chain: MSQHNEKNPHQHQSPLHDSSEAKPGMDSLAPEDGSHRPAAEPTPPGAQPTAPGSLKAPDTRNEKLNSLEDVRKGSENYALTTNQGVRIADDQNSLRAGSRGPTLLEDFILREKITHFDHERIPERIVHARGSAAHGYFQPYKSLSDITKADFLSDPNKITPVFVRFSTVQGGAGSADTVRDIRGFATKFYTEEGIFDLVGNNTPIFFIQDAHKFPDFVHAVKPEPHWAIPQGQSAHDTFWDYVSLQPETLHNVMWAMSDRGIPRSYRTMEGFGIHTFRLINAEGKATFVRFHWKPLAGKASLVWDEAQKLTGRDPDFHRRELWEAIEAGDFPEYELGFQLIPEEDEFKFDFDLLDPTKLIPEELVPVQRVGKMVLNRNPDNFFAENEQAAFHPGHIVPGLDFTNDPLLQGRLFSYTDTQISRLGGPNFHEIPINRPTCPYHNFQRDGMHRMGIDTNPANYEPNSINDNWPRETPPGPKRGGFESYQERVEGNKVRERSPSFGEYYSHPRLFWLSQTPFEQRHIVDGFSFELSKVVRPYIRERVVDQLAHIDLTLAQAVAKNLGIELTDDQLNITPPPDVNGLKKDPSLSLYAIPDGDVKGRVVAILLNDEVRSADLLAILKALKAKGVHAKLLYSRMGEVTADDGTVLPIAATFAGAPSLTVDAVIVPCGNIADIADNGDANYYLMEAYKHLKPIALAGDARKFKATIKIADQGEEGIVEADSADGSFMDELLTLMAAHRVWSRIPKIDKIPA
# notes: catalase HPII, Escherichia coli, native source protein; identified with PDB 1GG9; the PDB entry is the previously deposited structure that identified the protein; the crystallised protein is the native one; source: purified from E. coli DH5α cells (whole-proteome fractionation)
# B4: MoaB (molybdopterin biosynthesis protein B) (natural protein, Escherichia coli, UniProt P0AEZ9 1-170, looked up)
# chain: MSQVSTEFIPTRIAILTVSNRRGEEDDTSGHYLRDSAQEAGHHVVDKAIVKENRYAIRAQVSAWIASDDVQVVLITGGTGLTEGDQAPEALLPLFDREVEGFGEVFRMLSFEEIGTSTLQSRAVAGVANKTLIFAMPGSTKACRTAWENIIAPQLDARTRPCNFHPHLKK
# notes: MoaB, molybdopterin biosynthesis protein B, Escherichia coli, native source protein; identified with PDB 1R2K; the PDB entry is the previously deposited structure that identified the protein; the crystallised protein is the native one; source: purified from E. coli DH5α cells (whole-proteome fractionation)
# B5: Lysyl-tRNA synthetase (constitutive) (enzyme, Escherichia coli, UniProt P0A8N3 1-505, looked up)
# chain: MSEQHAQGADAVVDLNNELKTRREKLANLREQGIAFPNDFRRDHTSDQLHAEFDGKENEELEALNIEVAVAGRMMTRRIMGKASFVTLQDVGGRIQLYVARDDLPEGVYNEQFKKWDLGDILGAKGKLFKTKTGELSIHCTELRLLTKALRPLPDKFHGLQDQEARYRQRYLDLISNDESRNTFKVRSQILSGIRQFMVNRGFMEVETPMMQVIPGGAAARPFITHHNALDLDMYLRIAPELYLKRLVVGGFERVFEINRNFRNEGISVRHNPEFTMMELYMAYADYKDLIELTESLFRTLAQDILGKTEVTYGDVTLDFGKPFEKLTMREAIKKYRPETDMADLDNFDSAKAIAESIGIHVEKSWGLGRIVTEIFEEVAEAHLIQPTFITEYPAEVSPLARRNDVNPEITDRFEFFIGGREIGNGFSELNDAEDQAQRFLDQVAAKDAGDDEAMFYDEDYVTALEHGLPPTAGLGIGIDRMVMLFTNSHTIRDVILFPAMRPVK
# notes: lysyl-tRNA synthetase, constitutive form, Escherichia coli, native source protein; identified with PDB 1BBW; the PDB entry is the previously deposited structure that identified the protein; the crystallised protein is the native one; source: purified from E. coli DH5α cells (whole-proteome fractionation)
# B6: phosphoserine aminotransferase (enzyme, Escherichia coli, UniProt P23721 1-362, looked up)
# chain: MAQIFNFSSGPAMLPAEVLKQAQQELRDWNGLGTSVMEVSHRGKEFIQVAEEAEKDFRDLLNVPSNYKVLFCHGGGRGQFAAVPLNILGDKTTADYVDAGYWAASAIKEAKKYCTPNVFDAKVTVDGLRAVKPMREWQLSDNAAYMHYCPNETIDGIAIDETPDFGADVVVAADFSSTILSRPIDVSRYGVIYAGAQKNIGPAGLTIVIVREDLLGKANIACPSILDYSILNDNGSMFNTPPTFAWYLSGLVFKWLKANGGVAEMDKINQQKAELLYGVIDNSDFYRNDVAKANRSRMNVPFQLADSALDKLFLEESFAAGLHALKGHRVVGGMRASIYNAMPLEGVKALTDFMVEFERRHG
# notes: phosphoserine aminotransferase, Escherichia coli, native source protein; identified with PDB 1BJN; the PDB entry is the previously deposited structure that identified the protein; the crystallised protein is the native one; source: purified from E. coli DH5α cells (whole-proteome fractionation)
# B7: Malate dehydrogenase (enzyme, Escherichia coli, UniProt P61889 1-312, looked up)
# chain: MKVAVLGAAGGIGQALALLLKTQLPSGSELSLYDIAPVTPGVAVDLSHIPTAVKIKGFSGEDATPALEGADVVLISAGVARKPGMDRSDLFNVNAGIVKNLVQQVAKTCPKACIGIITNPVNTTVAIAAEVLKKAGVYDKNKLFGVTTLDIIRSNTFVAELKGKQPGEVEVPVIGGHSGVTILPLLSQVPGVSFTEQEVADLTKRIQNAGTEVVEAKAGGGSATLSMGQAAARFGLSLVRALQGEQGVVECAYVEGDGQYARFFSQPLLLGKNGVEERKSIGTLSAFEQNALEGMLDTLKKDIALGEEFVNK
# notes: malate dehydrogenase, Escherichia coli, native source protein; identified with PDB 2PWZ; the PDB entry is the previously deposited structure that identified the protein; the crystallised protein is the native one; source: purified from E. coli DH5α cells (whole-proteome fractionation)
# B8: Methylglyoxal reductase (YghZ) (enzyme, Escherichia coli, UniProt Q46851 1-346, looked up)
# chain: MVWLANPERYGQMQYRYCGKSGLRLPALSLGLWHNFGHVNALESQRAILRKAFDLGITHFDLANNYGPPPGSAEENFGRLLREDFAAYRDELIISTKAGYDMWPGPYGSGGSRKYLLASLDQSLKRMGLEYVDIFYSHRVDENTPMEETASALAHAVQSGKALYVGISSYSPERTQKMVELLREWKIPLLIHQPSYNLLNRWVDKSGLLDTLQNNGVGCIAFTPLAQGLLTGKYLNGIPQDSRMHREGNKVRGLTPKMLTEANLNSLRLLNEMAQQRGQSMAQMALSWLLKDDRVTSVLIGASRAEQLEENVQALNNLTFSTKELAQIDQHIADGELNLWQASSDK
# notes: methylglyoxal reductase YghZ, Escherichia coli, native source protein; identified from the electron density after molecular replacement; source: purified from E. coli DH5α cells (heparin sepharose, phenyl sepharose, MonoQ)
# Experiments:
# [1] = molecular target: the molecule itself; test: crystal structure; native source E. coli proteins already in the PDB, identified and solved by brute-force molecular replacement, not refined except to confirm the solution; oligomer seen in the crystal
# [2] = molecular target: the molecule itself; test: crystal structure; novel structures of native source E. coli proteins, solved by molecular replacement and refined; oligomer seen in the crystal
Protein,binding result [1],stoichiometry N [2]
B1,binds,–
B2,–,2
B3,binds,–
B4,binds,–
B5,binds,–
B6,binds,–
B7,binds,–
B8,–,4
